Key:
Assay type in all cases: biochemical, Eucalyptus camaldulensis
purified protein [1] = substrate: NC(=O)C1=CN([C@@H]2O[C@H](COP(=O)(O)OP(=O)(O)OC[C@H]3O[C@@H](n4cnc5c(N)ncnc54)[C@H](OP(=O)(O)O)[C@@H]3O)[C@@H](O)[C@H]2O)C=CC1; assay: purified protein; conditions: shikimate formation from 3-DHS, varied: cofactor
purified protein [2] = substrate: NC(=O)c1ccc[n+]([C@@H]2O[C@H](COP(=O)(O)OP(=O)(O)OC[C@H]3O[C@@H](n4cnc5c(N)ncnc54)[C@H](OP(=O)(O)O)[C@@H]3O)[C@@H](O)[C@H]2O)c1; assay: purified protein; conditions: shikimate oxidation, pH 9, 30 °C, varied: cofactor
purified protein [3] = substrate: O=C(O)C1=CC(=O)[C@@H](O)[C@H](O)C1; assay: purified protein; conditions: shikimate formation with NADPH
purified protein [4] = substrate: O=C(O)C1=C[C@@H](O)[C@@H](O)[C@H](O)C1; assay: purified protein; conditions: shikimate oxidation with NADP+, pH 9, 30 °C
[5] = substrate: O=C1C[C@@](O)(C(=O)O)C[C@@H](O)[C@@H]1O; assay: HPLC of 3-DHS formed, Michaelis-Menten fit; conditions: DQD activity, no cofactor, pH 7, 30 °C
Excerpt: HPLC of 3-DHS formed, Michaelis-Menten fit on EcDQD/SDH2

[6] = substrate: O=C1C[C@@](O)(C(=O)O)C[C@@H](O)[C@@H]1O; assay: HPLC of 3-DHS formed, Michaelis-Menten fit; conditions: DQD activity, no cofactor, pH 7, 30 °C; remark: listed apart in the source
Excerpt: HPLC of 3-DHS formed, Michaelis-Menten fit on EcDQD/SDH1

[7] = substrate: O=C1C[C@@](O)(C(=O)O)C[C@@H](O)[C@@H]1O; assay: HPLC of 3-DHS formed, Michaelis-Menten fit; conditions: DQD activity, no cofactor, pH 7, 30 °C; remark: listed apart in the source
Excerpt: HPLC of 3-DHS formed, Michaelis-Menten fit on EcDQD/SDH3

purified protein [8] = substrate: NC(=O)C1=CN([C@@H]2O[C@H](COP(=O)(O)OP(=O)(O)OC[C@H]3O[C@@H](n4cnc5c(N)ncnc54)[C@H](O)[C@@H]3O)[C@@H](O)[C@H]2O)C=CC1; assay: purified protein; conditions: quinate formation from 3-DHQ, pH 7.5, 30 °C, varied: cofactor
purified protein [9] = substrate: NC(=O)c1ccc[n+]([C@@H]2O[C@H](COP(=O)(O)OP(=O)(O)OC[C@H]3O[C@@H](n4cnc5c(N)ncnc54)[C@H](O)[C@@H]3O)[C@@H](O)[C@H]2O)c1; assay: purified protein; conditions: quinate oxidation, pH 9, 30 °C, varied: cofactor
purified protein [10] = substrate: O=C(O)[C@]1(O)C[C@@H](O)[C@@H](O)[C@H](O)C1; assay: purified protein; conditions: quinate oxidation with NAD+, pH 9, 30 °C
purified protein [11] = substrate: O=C1C[C@@](O)(C(=O)O)C[C@@H](O)[C@@H]1O; assay: purified protein; conditions: quinate formation with NADH, pH 7.5, 30 °C

B1: EcDQD/SDH2 (Eucalyptus camaldulensis) (protein)
chain: TLSSIPLTAADLQIPAGGRRNSTLLCAPVMGESVDQMLGQIRAAKEQGADLVEVRLDFLKSFSPKQDLEILLKQSALPTLVTYRPKWEGGQYEGDDSQRLDALRLALELGADYVDVELQVAQEFFSSIQGKKPEKAKIIVSSHNYQNTPSSEELGNLVAKIQATGADIVKIATTALDISDCPRIFEVLAHSQVPTIAIAMGERGLISRILAAKFGGYLTFGAIEAGVVSAPGQPSIKDLLDLYNLRQLGPDTKVHGVIGKPIGHSKSPHLYNAAFKSVNFNGIYLPLLVDNVANFINAYSSPDFVGYSYTIPHKEDGLRCCDEVDPIAKAIGAISQMIRRPTDGKMIGYNVDYLGAIAAIEEALRASNGASPTTTSPLAGKLFVVIGAGGAGKALAYGAMEKGARVVVANRTYEKAKELASKVGGQAITLAELENFHPEDGMVLANTTSVGMKPNVDLTPLPKNALSRYCLVFDAIYTPKLTRLLREAQEVGAIPVYGTEMFINQAFVQFERFTGYPAPKQLIRDTLVKNS
notes: genome locus by order of listing EcC035206.10
- Km (purified protein [1]; pH 8.5, 30 °C): 4.38 ± 0.43 µM
- Vmax (purified protein [1]; pH 8.5, 30 °C): 28.9 µmol/min/mg
- kcat (purified protein [1]; pH 8.5, 30 °C): 27.6 ± 0.5 s⁻¹
- kcat/Km (purified protein [1]; pH 8.5, 30 °C): 6.3e+06 M⁻¹ s⁻¹
- Km (purified protein [2]): 65.2 ± 2.7 µM
- Vmax (purified protein [2]): 141 µmol/min/mg
- kcat (purified protein [2]): 135 ± 1 s⁻¹
- kcat/Km (purified protein [2]): 2.07e+06 M⁻¹ s⁻¹
- Km (purified protein [3]; pH 8.5, 30 °C): 8830 ± 1210 µM
- Vmax (purified protein [3]; pH 8.5, 30 °C): 49.3 µmol/min/mg
- kcat (purified protein [3]; pH 8.5, 30 °C): 47 ± 3.3 s⁻¹
- kcat/Km (purified protein [3]; pH 8.5, 30 °C): 5320 M⁻¹ s⁻¹
- Km (purified protein [4]): 2050 ± 200 µM
- Vmax (purified protein [4]): 153 µmol/min/mg
- kcat (purified protein [4]): 146 ± 4 s⁻¹
- kcat/Km (purified protein [4]): 71300 M⁻¹ s⁻¹
- Km [5]: 322 ± 13 µM
- Vmax [5]: 32.4 µmol/min/mg
- kcat [5]: 30.9 ± 0.3 s⁻¹
- kcat/Km [5]: 96200 M⁻¹ s⁻¹

B2: EcDQD/SDH1 (Eucalyptus camaldulensis) (protein)
chain: ASTGNVLLATSSAPHEMESGAVRKNSTLICVPVMADSVEEMVIQLDKAKSSGADLVEIRVDSLKNLSPHEDLKTLIKASALPTLFTYRPKWEGGQYDGDDKPRLETLRLAMELGADYIDVELKVASEFNASIQGRKPEKCKVIVSSHNYENTPSAEDLSNLVARIQAAGADIVKIATTALDITDVERMFHITVHSQVSSVPVIGMVMGERGLISRVLCAKFGGFLTFGTLESGVVSAPGQPTIKDLLDLYNFRSIGPDTKVFGIIGKPVGHSKSPLLYNQAFKSAGFDGVFLHLLVDDVASFLQTYSSTDFAGFSCTIPHKEAAVKCCDEVDPVAKSIGAVNCIIRRQSDAKLFGYNTDYVGAISAIEDGLRGSQNGNSAGASPLNGKLFVVIGAGGAGKALGYGAKEKGARVVIANRTYDRARELAETIGGDALSLADLENFHPEDGMILANTTSIGMQPKVDETPIPKHALKHYSLVFDAVYTPKITRLLKEAEECGATIVSGLEMFIGQAYGQYERYTGLPAPKELFRKIMSKY
notes: genome locus by order of listing EcC055014.20
- Km (purified protein [1]; pH 6.5, 30 °C): 49.5 ± 3.6 µM
- Vmax (purified protein [1]; pH 6.5, 30 °C): 404 µmol/min/mg
- kcat (purified protein [1]; pH 6.5, 30 °C): 389 ± 9 s⁻¹
- kcat/Km (purified protein [1]; pH 6.5, 30 °C): 7.86e+06 M⁻¹ s⁻¹
- Km (purified protein [2]): 56.5 ± 2.3 µM
- Vmax (purified protein [2]): 822 ± 6 µmol/min/mg
- kcat (purified protein [2]): 792 ± 6 s⁻¹
- kcat/Km (purified protein [2]): 1.4e+07 M⁻¹ s⁻¹
- Km (purified protein [3]; pH 6.5, 30 °C): 381 ± 34 µM
- Vmax (purified protein [3]; pH 6.5, 30 °C): 318 µmol/min/mg
- kcat (purified protein [3]; pH 6.5, 30 °C): 307 ± 5 s⁻¹
- kcat/Km (purified protein [3]; pH 6.5, 30 °C): 805000 M⁻¹ s⁻¹
- Km (purified protein [4]): 32.6 ± 1.9 µM
- Vmax (purified protein [4]): 780 ± 6 µmol/min/mg
- kcat (purified protein [4]): 755 ± 6 s⁻¹
- kcat/Km (purified protein [4]): 2.32e+07 M⁻¹ s⁻¹
- Km [6]: 449 ± 22 µM
- Vmax [6]: 63 µmol/min/mg
- kcat [6]: 60.4 ± 0.7 s⁻¹
- kcat/Km [6]: 135000 M⁻¹ s⁻¹

B3: EcDQD/SDH3 (Eucalyptus camaldulensis) (protein)
chain: GSVPFTTSDLQTSTSGFRSSPTLLCTPLMGTTVDQMLIEMRKAKEIGADLVEIRLDCLRNFNPHQDLQILIKQSPLPTLVTYRPVWEGGQYEGDESKRQDALRLAMQLGAHYIDVELEVAHDFNSSILGKKPDNFKIIVSSHNFHNTPSAEAIGNLVARIQATGADIAKIATTALDITDCARIFQITVHSQIPIIGIVMGERGLISRILSPKFGGYLTYGALEAGAISAPGQPTAKDLLDLYNFRLIRPDTKVYGIIGKPVGHSKSPLLFNASYKSVGLNAVYLHFLVDDVEKFFNTYSAVDFASGCSCTIPHKEAALKCMDEIDPIAKKIGAINNIVRRPDGTLTAFNTDYIGAISAIEDGLRGLNGVSSGASPLAGKLFVVLGAGGAGKSLAYGAAQKGARVVVANRTFERAKELADKVGGQAMTLAEVENFHPEEGMVLANTTSVGMKPKIDETPLAKHALKHYCLVFDAIYTPKDTRLLREARETGAVIVYGTEMLIRQGFEQYKNFTGLPAPEELFRTLMEKHA
notes: genome locus by order of listing EcC054875.120
- Km (purified protein [1]; pH 6.5, 30 °C): 23.1 ± 1.4 µM
- Vmax (purified protein [1]; pH 6.5, 30 °C): 77.4 µmol/min/mg
- kcat (purified protein [1]; pH 6.5, 30 °C): 74.1 ± 1.2 s⁻¹
- kcat/Km (purified protein [1]; pH 6.5, 30 °C): 3.21e+06 M⁻¹ s⁻¹
- Km (purified protein [2]): 41.5 ± 2.1 µM
- Vmax (purified protein [2]): 73.2 µmol/min/mg
- kcat (purified protein [2]): 70.2 ± 0.6 s⁻¹
- kcat/Km (purified protein [2]): 1.69e+06 M⁻¹ s⁻¹
- Km (purified protein [3]; pH 6.5, 30 °C): 878 ± 106 µM
- Vmax (purified protein [3]; pH 6.5, 30 °C): 60 µmol/min/mg
- kcat (purified protein [3]; pH 6.5, 30 °C): 57.6 ± 1.7 s⁻¹
- kcat/Km (purified protein [3]; pH 6.5, 30 °C): 65600 M⁻¹ s⁻¹
- Km (purified protein [4]): 3640 ± 360 µM
- Vmax (purified protein [4]): 84 µmol/min/mg
- kcat (purified protein [4]): 80.7 ± 2.9 s⁻¹
- kcat/Km (purified protein [4]): 22200 M⁻¹ s⁻¹
- Km [7]: 882 ± 42 µM
- Vmax [7]: 3.83 µmol/min/mg
- kcat [7]: 3.67 ± 0.05 s⁻¹
- kcat/Km [7]: 4160 M⁻¹ s⁻¹

B4: EcDQD/SDH4a (EcQDHa) (Eucalyptus camaldulensis) (protein)
chain: GSLSLSSVGLTMVCAPVMGESVDQVVEEMHKAKAQGADVVEVRLDCIKQFQAHQDLEIILKSKPLPVIIVYRPKCEGGLYEGDETARLEALRSALKLGADYVDFELKVAAELMSKQNKLHCGGTKVIVSCFLDGVTPSKEELSNLATHMKATGADIIKIVTSASNITELAGLFHLLSYSQMPVVAYAVGERGLISQLLSPKFGSTLVYGSIEGMAVPGLPTLESLRKTYKVEHINSDTTVFGLISKPVGHSKGPILHNPTLRHMNFNGLYVPMFVDNLKEFFEVYSTPDFAGFSVGFPYKEAVIQFCDEVHPLAQTIGAVNTIVRRPSDGKLIGYNTDCEASVTAMEDALQECRCINGEKSLVSPLAGKEFVLVGAGGAGRALAFGAKTRGARIIIFDIDFERAKMLAHAVSGEARPFGDLPYFQPEKGSILANATPIGMHPNKDRIPVSEASLGVFQLVFDAVYTPRKTTLLKEAEAAGAITVSGVEMFLRQAIGQFNLFTGGEAPKEFMREIVLAKF
- Km (purified protein [8]): 102 ± 9 µM
- Vmax (purified protein [8]): 318 µmol/min/mg
- kcat (purified protein [8]): 298 ± 8 s⁻¹
- kcat/Km (purified protein [8]): 2.92e+06 M⁻¹ s⁻¹
- Km (purified protein [9]): 53.7 ± 1.7 µM
- Vmax (purified protein [9]): 148 µmol/min/mg
- kcat (purified protein [9]): 139 ± 1 s⁻¹
- kcat/Km (purified protein [9]): 2.59e+06 M⁻¹ s⁻¹
- Km (purified protein [10]): 164 ± 10 µM
- Vmax (purified protein [10]): 135 µmol/min/mg
- kcat (purified protein [10]): 127 ± 2 s⁻¹
- kcat/Km (purified protein [10]): 771000 M⁻¹ s⁻¹
- Km (purified protein [11]): 1400 ± 120 µM
- Vmax (purified protein [11]): 300 µmol/min/mg
- kcat (purified protein [11]): 281 ± 7 s⁻¹
- kcat/Km (purified protein [11]): 201000 M⁻¹ s⁻¹
